Paper PMC7367873, “Dissecting the sequence determinants for dephosphorylation by the catalytic subunits of phosphatases PP1 and PP2A” (Nature Communications, 2020)
One block for each molecule: values may come before it.

Tests used:
GFP-14-3-3β = GFP-14-3-3β co-IP with LC-MS/MS, untreated GFP-14-3-3β versus GFP control (14-3-3 interactome); assay type: binding, human; conditions: GFP-14-3-3β co-IP LC-MS/MS; untreated vs GFP; student's t-test; label-free quantification, 3 replicates each
[1] = tested on: GFP-14-3-3β and its binding proteins; test: GFP-14-3-3β co-IP with LC-MS/MS label-free quantification, untreated versus PP1c-treated; set-up: species or system human; conditions: GFP-14-3-3β co-IP LC-MS/MS; PP1 vs untreated; student's t-test; label-free quantification, 3 replicates each

- Difference (log2), PP1 vs untreated [1]: -0.3668 log2
B1: SFPQ (protein, UniProt P23246 1-707, looked up)
Splicing factor, proline- and …: MSRDRFRSRGGGGGGFHRRGGGGGRGGLHDFRSPPPGMGLNQNRGPMGPGPGQSGPKPPIPPPPPHQQQQQPPPQQPPPQQPPPHQPPPHPQPHQQQQPPPPPQDSSKPVVAQGPGPAPGVGSAPPASSSAPPATPPTSGAPPGSGPGPTPTPPPAVTSAPPGAPPPTPPSSGVPTTPPQAGGPPPPPAAVPGPGPGPKQGPGPGGPKGGKMPGGPKPGGGPGLSTPGGHPKPPHRGGGEPRGGRQHHPPYHQQHHQGPPPGGPGGRSEEKISDSEGFKANLSLLRRPGEKTYTQRCRLFVGNLPADITEDEFKRLFAKYGEPGEVFINKGKGFGFIKLESRALAEIAKAELDDTPMRGRQLRVRFATHAAALSVRNLSPYVSNELLEEAFSQFGPIERAVVIVDDRGRSTGKGIVEFASKPAARKAFERCSEGVFLLTTTPRPVIVEPLEQLDDEDGLPEKLAQKNPMYQKERETPPRFAQHGTFEYEYSQRWKSLDEMEKQQREQVEKNMKDAKDKLESEMEDAYHEHQANLLRQDLMRRQEELRRMEELHNQEMQKRKEMQLRQEEERRRREEEMMIRQREMEEQMRRQREESYSRMGYMDPRERDMRMGGGGAMNMGDPYGSGGQKFPPLGGGGGIGYEANPGVPPATMSGSMMGSDMRTERFGQGGAGPVGGQGPRGMGPGTPAGYGRGREEYEGPNKKPRF
- Difference (log2), untreated vs GFP (GFP-14-3-3β): 0.3721 log2

- Difference (log2), PP1 vs untreated [1]: -0.3598 log2
B2: LAMB3 (protein, UniProt Q13751 18-1172, looked up)
Laminin subunit beta-3: QQACSRGACYPPVGDLLVGRTRFLRASSTCGLTKPETYCTQYGEWQMKCCKCDSRQPHNYYSHRVENVASSSGPMRWWQSQNDVNPVSLQLDLDRRFQLQEVMMEFQGPMPAGMLIERSSDFGKTWRVYQYLAADCTSTFPRVRQGRPQSWQDVRCQSLPQRPNARLNGGKVQLNLMDLVSGIPATQSQKIQEVGEITNLRVNFTRLAPVPQRGYHPPSAYYAVSQLRLQGSCFCHGHADRCAPKPGASAGPSTAVQVHDVCVCQHNTAGPNCERCAPFYNNRPWRPAEGQDAHECQRCDCNGHSETCHFDPAVFAASQGAYGGVCDNCRDHTEGKNCERCQLHYFRNRRPGASIQETCISCECDPDGAVPGAPCDPVTGQCVCKEHVQGERCDLCKPGFTGLTYANPQGCHRCDCNILGSRRDMPCDEESGRCLCLPNVVGPKCDQCAPYHWKLASGQGCEPCACDPHNSLSPQCNQFTGQCPCREGFGGLMCSAAAIRQCPDRTYGDVATGCRACDCDFRGTEGPGCDKASGRCLCRPGLTGPRCDQCQRGYCNRYPVCVACHPCFQTYDADLREQALRFGRLRNATASLWSGPGLEDRGLASRILDAKSKIEQIRAVLSSPAVTEQEVAQVASAILSLRRTLQGLQLDLPLEEETLSLPRDLESLDRSFNGLLTMYQRKREQFEKISSADPSGAFRMLSTAYEQSAQAAQQVSDSSRLLDQLRDSRREAERLVRQAGGGGGTGSPKLVALRLEMSSLPDLTPTFNKLCGNSRQMACTPISCPGELCPQDNGTACGSRCRGVLPRAGGAFLMAGQVAEQLRGFNAQLQRTRQMIRAAEESASQIQSSAQRLETQVSASRSQMEEDVRRTRLLIQQVRDFLTDPDTDAATIQEVSEAVLALWLPTDSATVLQKMNEIQAIAARLPNVDLVLSQTKQDIARARRLQAEAEEARSRAHAVEGQVEDVVGNLRQGTVALQEAQDTMQGTSRSLRLIQDRVAEVQQVLRPAEKLVTSMTKQLGDFWTRMEELRHQARQQGAEAVQAQQLAEGASEQALSAQEGFERIKQKYAELKDRLGQSSMLGEQGARIQSVKTEAEELFGETMEMMDRMKDMELELLRGSQAIMLRSADLTGLEKRVEQIRDHINGRVLYYATCK
- Difference (log2), untreated vs GFP (GFP-14-3-3β): 0.9719 log2
